For assay [1], the target named is human neonatal Fc receptor (FcRn) (human) (UniProt P55899). Nature of the assay: SPR, binding to huFcRn at pH 6.0. Background: In SPR one partner is held on a chip, and binding of the other changes the refractive index at the surface.
For assay [2], the target named is human CD16a (human FcγRIIIA), V isoform (human) (UniProt P08637). The experiment in a line: SPR (Biacore T200), His-tagged huCD16a captured by anti-His antibody on CM5 chip, antibody injected at 5.8-3000 nmol/L, steady state fit.
Sequence of human CD16a (human FcγRIIIA), V isoform (human) (P08637 17-208 F176V limits assumed): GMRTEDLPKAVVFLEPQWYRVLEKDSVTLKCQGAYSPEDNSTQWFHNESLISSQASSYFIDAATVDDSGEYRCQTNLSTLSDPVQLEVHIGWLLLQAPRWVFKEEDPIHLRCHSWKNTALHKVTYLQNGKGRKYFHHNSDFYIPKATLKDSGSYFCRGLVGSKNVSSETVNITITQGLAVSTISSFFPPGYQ

This passage reports Kd results from US20240034816A1.

Sequence of human neonatal Fc receptor (FcRn) (human) (P55899 24-297 limits assumed, chain 1 of 2): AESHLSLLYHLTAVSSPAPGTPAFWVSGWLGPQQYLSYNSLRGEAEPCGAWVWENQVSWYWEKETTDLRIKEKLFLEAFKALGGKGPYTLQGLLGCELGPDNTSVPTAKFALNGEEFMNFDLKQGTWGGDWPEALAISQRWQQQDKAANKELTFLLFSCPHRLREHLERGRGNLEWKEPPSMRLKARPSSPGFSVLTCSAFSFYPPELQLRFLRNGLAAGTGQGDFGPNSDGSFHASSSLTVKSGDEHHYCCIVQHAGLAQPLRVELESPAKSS
Sequence of human neonatal Fc receptor (FcRn) (human) (chain, as listed by the source limits assumed, chain 2 of 2): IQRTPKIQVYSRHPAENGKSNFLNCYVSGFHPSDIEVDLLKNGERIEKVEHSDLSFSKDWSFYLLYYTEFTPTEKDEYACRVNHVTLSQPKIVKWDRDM

Broadly, the Kd is the free concentration of one partner at which half of the binding sites on the other are occupied at equilibrium, for simple one-to-one binding. Higher therefore signals lower affinity. With Adalimumab huIgG1 ctrl (antibody), the figures for the Kd in assay [1] and in assay [2] were 154 nM and 467 nM, respectively.
